System: lac repressor (LacI)
Experiment: SFM imaging
Settings: streptavidin bound, SFM: 7.5 nM LacI, about 30 min incubation, 100 uM NTPs for 60 s, EDTA quench, poly-L-ornithine-coated mica, buffer, salt, pH and temperature not in the …

| Substance | binding signal (% looped molecules) (LacI, with transcription (NTP), downstream-end biotin) | binding signal (% looped molecules) (LacI, without transcription, downstream-end biotin) | binding signal (% looped molecules) (7.5 nM LacI, with transcription (NTP), 3'/downstream-end biotin) | binding signal (% operator occupancy) (7.5 nM LacI, without NTP (drops about 20% with transcription), 3'/downstream-end biotin) | binding signal (% looped molecules) (7.5 nM LacI, without transcription, 3'/downstream-end biotin) |
| --- | --- | --- | --- | --- | --- |
| O2-400-O1 SFM template | 14 | 12 |  |  |  |
| Os-400-O1 SFM template |  |  | 50 | > 90 | 34 |
